From the supplement of paper PMC7877785
± gives the uncertainty stated by the source.

Test: self-splicing fitness, log relative to wild type (ln ratio); higher = more splicing; Tetrahymena group I intron in knt gene, E. coli kanamycin selection, DiMSum; sequences stand for … in CUCUCU…GGAGGGAAAAGUUAUCAGGCAUGCACCUGGUAGCUAGUCUUUAAACCAAUAGAUUGCAUCGGUUUAAAAGGCAAGACCGUCAAAUUGCGGGAAAGGGGUCAACAGCCGUUCAGUACCAAGUCUCAGGGGAAACUUUGAGAUGGCCUUGCAAAGGGUAUGGUAAUAAGCUGACGGACAUGGUCCUAACCACGCAGCCAAGUCCUAAGUCAACAGAUCUUCUGUUGAUAUGGAUGCAGUUCACAGACUAAAUGUCGGUCGGGGAAGAUGUAUUCUUCUCAUAAGAUAUAGUCGGACCUCUCCUUAAUGGGAGCUAGCGGAUGAAGUGAUGCAACACUGGAGCCGCUGGGAACUAAUUUGUAUGCGAAAGUAUAUUGAUUAGUUUUGGAGUACUCGUGGUCG
Procedure, shortened: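 Library with all eight P1ex-region intron nucleotides randomised, intron inside the knt kanamycin-resistance gene on pET-22b(+), in E. coli BL21(DE3). Cells grew overnight at 37°C or 30°C on LB agar with or without 25 μg/mL kanamycin (plus 100 μg/mL carbenicillin, 50 μM IPTG, 0.2% rhamnose), in six replicate transformations. Pooled colonies were amplicon-sequenced on Illumina HiSeq 2500. DiMSum fitness is the error-weighted combination of wild-type-normalised replicate fold changes, kanamycin versus none.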

| Sequence | self-splicing fitness (ln) (30 °C) | self-splicing fitness (ln) (37 °C) |
| --- | --- | --- |
| CGCAAGCAAUAUUACGGAUC | -2 ± 0.19 | -2.21 ± 0.18 |
| CGCAAGCAAUAUUACGGAUG | -1.2 ± 0.062 | -0.889 ± 0.073 |
| CGCAAGCAAUAUUACGGCAA | -1.41 ± 0.1 | -0.0385 ± 0.081 |
| CGCAAGCAAUAUUACGGCAG | -0.448 ± 0.072 | -0.305 ± 0.1 |
| CGCAAGCAAUAUUACGGUAA | -3.47 ± 0.16 | -1.67 ± 0.1 |
| CGCAAGCAAUAUUACGGUCU | -0.969 ± 0.066 | -0.898 ± 0.081 |
| CGCAAGCAAUAUUACGUACG | -2.03 ± 0.086 | -0.768 ± 0.1 |
| CGCAAGCAAUAUUACGUGAA | -2.5 ± 0.11 | -1.08 ± 0.11 |
| CGCAAGCAAUAUUACGUGAU | -4.09 ± 0.16 | -1.63 ± 0.11 |
| CGCAAGCAAUAUUACGUGUA | -2.88 ± 0.13 | -0.494 ± 0.1 |
| CGCAAGCAAUAUUACGUUAG | -1.15 ± 0.073 | -1.42 ± 0.1 |
| CGCCAGCAAUAUUACGAAUU | -4.49 ± 0.27 | -1.46 ± 0.17 |
| CGCCAGCAAUAUUACGAGAU | -3.69 ± 0.18 | -2.04 ± 0.17 |
| CGCCAGCAAUAUUACGAUAG | 0.428 ± 0.062 | 0.155 ± 0.081 |
| CGCCAGCAAUAUUACGCAAU | -4.2 ± 0.21 | -2.63 ± 0.22 |
| CGCCAGCAAUAUUACGCAUC | -3.71 ± 0.16 | -2.74 ± 0.17 |
| CGCCAGCAAUAUUACGCAUU | -3.11 ± 0.25 | -2.01 ± 0.18 |
| CGCCAGCAAUAUUACGCCAA | -1.59 ± 0.23 | -2.02 ± 0.46 |
| CGCCAGCAAUAUUACGCCAC |  | -1.48 ± 0.2 |
| CGCCAGCAAUAUUACGCCGU | -2.59 ± 0.15 | -1.71 ± 0.17 |

| Sequence | self-splicing fitness (ln) (30 °C) | self-splicing fitness (ln) (37 °C) |
| --- | --- | --- |
| CGCCAGCAAUAUUACGCGCU | -3.54 ± 0.15 | -2.52 ± 0.15 |
| CGCCAGCAAUAUUACGCUGC | -4.16 ± 0.41 | -2.24 ± 0.28 |
| CGCCAGCAAUAUUACGGAAU | -2.95 ± 0.2 | -2.05 ± 0.21 |
| CGCCAGCAAUAUUACGGAGA |  | -2.4 ± 0.24 |
| CGCCAGCAAUAUUACGGCUU | -0.48 ± 0.07 | -0.347 ± 0.08 |
| CGCCAGCAAUAUUACGGGAC |  | -2.48 ± 0.24 |
| CGCCAGCAAUAUUACGGUAG | -2.51 ± 0.11 | -2.03 ± 0.18 |
| CGCCAGCAAUAUUACGGUUU | -0.936 ± 0.056 | -0.589 ± 0.059 |
| CGCCAGCAAUAUUACGUGCU | -3.27 ± 0.2 | -3.23 ± 0.33 |
| CGCCAGCAAUAUUACGUGUG | -2.82 ± 0.094 | -1.81 ± 0.11 |
| CGCCAGCAAUAUUACGUUAG | -0.475 ± 0.074 | 0.385 ± 0.099 |
| CGCCAGCAAUAUUACGUUCA | -2.8 ± 0.12 | -1.86 ± 0.11 |
| CGCCAGCAAUAUUACGUUGG | -2.64 ± 0.14 | -2.68 ± 0.24 |
| CGCGAGCAAUAUUACGAAGG | -2.81 ± 0.24 | -2.64 ± 0.27 |
| CGCGAGCAAUAUUACGAAUU | -3.16 ± 0.27 | -2.03 ± 0.21 |
| CGCGAGCAAUAUUACGACUU |  | -1.2 ± 0.47 |
| CGCGAGCAAUAUUACGAUAG | -1.05 ± 0.13 | -0.593 ± 0.16 |
| CGCGAGCAAUAUUACGCAUU | -2.71 ± 0.18 | -3.29 ± 0.35 |
| CGCGAGCAAUAUUACGCGCC | -1.37 ± 0.28 | -1.66 ± 0.48 |
| CGCGAGCAAUAUUACGCGCU |  | -1.67 ± 0.32 |
